Two substances from US20140179700A1 can be followed below.

The test system of series [1] is myelin basic protein (MBP) (Millipore).
Series [2] has as its target myelin basic protein (MBP) (Millipore). As to the kind of experiment: cell-based or functional assay.

Regarding ERK1/2 immunoprecipitated from SS RBCs, the “phosphorylation of MBP by immunoprecipitated ERK1/2 (anti-phosphoMBP immunoblot)” value in series [1] is recorded as “ERK1/2 immunoprecipitated from sham-treated SS RBCs was capable of phosphorylating MBP to some extent”.

Consider “ERK1/2 immunoprecipitated from SS RBCs (enzyme)”, for which the MBP phosphorylation by ERK1/2 from epinephrine-treated SS RBCs compared to ERK1/2 from sham-treated cells (fold) in series [2] stood at 2.1 fold.
